{
  "source": "paper PMC7472852",
  "about": "“The Phosphatase PP2A Interacts With ArnA and ArnB to Regulate the Oligomeric State and the Stability of the ArnA/B Complex” (Frontiers in Microbiology, 2020)",
  "molecules": {"B1": {"name": "N-terminally Strep-tagged ArnA (natural protein, S. acidocaldarius, UniProt Q4J9H4 1-206, looked up)", "chain": "MTWKCNLCGYENDDDALFCIKCGAQKSSEAQQLPQQQPSEPQAQGVVTQQQVVTNPPVQAQVATPQQPAQQPVLPQPEPAQPQPVSSTPAPQQASQPTNRYYIYFIQTPNENLVNKKVLLNFDLFPSVSMGRSPENIVIVPDSEVSRKHAVIYLDNSELYIEDLNSTNGTYVYDGKQFTPIKGKQKIEPNSIIKLGNQTIVRILKE", "notes": "ArnA of Sulfolobus acidocaldarius; printed molecular mass of Strep-ArnA 26.8 kDa; also called Strep-ArnA; source: E. coli Rosetta (DE3)/pLysS, purified (heat step, streptavidin beads, SEC); not shown: Strep II, N-terminal, kept"}},
  "key": {"[1]": {"target": "His-tagged ArnA (S. acidocaldarius)", "assay": "mass photometry; Refeyn OneMP, 20-100 nM protein in 50 mM Tris pH 8.0, 150 mM NaCl; SEC fractions of ArnA, ArnB, ArnA/B complex and phosphorylated ArnA/B complex"}, "[2]": {"target": "B1", "assay": "SEC; Superdex 200 (16/600), 50 mM Tris pH 8, 150 mM NaCl; equal amounts of ArnA and ArnB mixed and kept on ice for 1 h; fractions on SDS-PAGE; stoichiometry concluded from SEC and mass photometry together", "details": "both partners purified"}, "[3]": {"target": "the molecule itself", "assay": "mass photometry; Refeyn OneMP, 20-100 nM protein in 50 mM Tris pH 8.0, 150 mM NaCl; SEC fractions of ArnA, ArnB, ArnA/B complex and phosphorylated ArnA/B complex"}, "[4]": {"target": "the molecule itself", "assay": "SEC; Superdex 200 (16/600), 50 mM Tris pH 8, 150 mM NaCl; equal amounts of ArnA and ArnB mixed and kept on ice for 1 h; fractions on SDS-PAGE; stoichiometry concluded from SEC and mass photometry together"}},
  "data": [
    {"molecule": "His-tagged ArnA (natural protein)", "values": [
      {"measurement": "stoichiometry N", "setting": "[1]", "result": 2}
    ]},
    {"molecule": "C-terminally His-tagged ArnB (natural protein, S. acidocaldarius, UniProt Q4J9H3 1-380, looked up, ArnB of Sulfolobus acidocaldarius; printed molecular mass of ArnB-His 43.6 kDa; also called ArnB-His; source: E. coli Rosetta (DE3)/pLysS, purified (heat step, Ni-NTA, SEC); not shown: His, C-terminal, kept) MTISVKAELSHKYSFTSPLKGVFRLIIVPEKVSTARGFHYIILLDTSGSMYGVKIETAKQGAMELLSRIPEGNKISFLTFSNNVNILSEYADAPSLVQQIKQIRSGGQTVLYRALERAIEIAKKHDLPGYIILLTDGQPTDVPETDAYEKLNYPEAYKVIAFGIGDDYNERLLKVITDKTAGILYHVEDAKEIAEMLPQSAVTEIGAKNVSIDIVSETQVKLLNYPGPPVKLGAVESVVRVYGEIIIPPNFTGRLATVKISYEDPLSSRINRLEVNFDITRANDVKRFLDGINNDLVNEYRYYELMSKLANQLNSNNLSEATRTVEQMQMIAQQTRRMELIETTRRISESIETTRRIGTVEQTRKISKEITSEVTKKLRS", "values": [
      {"measurement": "stoichiometry N", "setting": "[1]", "result": 1},
      {"measurement": "stoichiometry N", "setting": "[2]", "result": 1}
    ]},
    {"molecule": "phosphorylated ArnA/B complex (complex, S. acidocaldarius, phosphorylated in vitro by the kinase ArnC (sites not given) | phosphorylated in vitro by the kinase ArnC (sites not given), ArnA of Sulfolobus acidocaldarius; ArnB of Sulfolobus acidocaldarius; Same tag uncertainty as m13; ArnB is the chain that is mainly phosphorylated in the complex; also called phosphorylated oligomeric ArnA/B complex; (ArnA/B)2; source: reconstituted ArnA/B complex (E. coli proteins, SEC-isolated) incubated with ArnC, ATP and Mn2+ at 55°C for 30 min) chain 1: MTWKCNLCGYENDDDALFCIKCGAQKSSEAQQLPQQQPSEPQAQGVVTQQQVVTNPPVQAQVATPQQPAQQPVLPQPEPAQPQPVSSTPAPQQASQPTNRYYIYFIQTPNENLVNKKVLLNFDLFPSVSMGRSPENIVIVPDSEVSRKHAVIYLDNSELYIEDLNSTNGTYVYDGKQFTPIKGKQKIEPNSIIKLGNQTIVRILKE chain 2: MTISVKAELSHKYSFTSPLKGVFRLIIVPEKVSTARGFHYIILLDTSGSMYGVKIETAKQGAMELLSRIPEGNKISFLTFSNNVNILSEYADAPSLVQQIKQIRSGGQTVLYRALERAIEIAKKHDLPGYIILLTDGQPTDVPETDAYEKLNYPEAYKVIAFGIGDDYNERLLKVITDKTAGILYHVEDAKEIAEMLPQSAVTEIGAKNVSIDIVSETQVKLLNYPGPPVKLGAVESVVRVYGEIIIPPNFTGRLATVKISYEDPLSSRINRLEVNFDITRANDVKRFLDGINNDLVNEYRYYELMSKLANQLNSNNLSEATRTVEQMQMIAQQTRRMELIETTRRISESIETTRRIGTVEQTRKISKEITSEVTKKLRS", "values": [
      {"measurement": "stoichiometry N", "setting": "[3]", "result": "2 ArnA/B heterodimers per complex"}
    ]},
    {"molecule": "B1", "values": [
      {"measurement": "stoichiometry N", "setting": "[4]", "result": 2}
    ]}
  ]
}
